Experimental data: US20240238380A1, “COMPOSITION FOR COMBINATION THERAPY COMPRISING GROWTH DIFFERENTIATION FACTOR-15 VARIANT AND GLUCAGON-LIKE PEPTIDE-1 RECEPTOR AGONIST” (YUHAN CORPORATION, priority 2021, published 2024)
Marks after values point to notes of the source that are not given here.

Assays:
[1] = Inhibitory effect on gastric emptying (acetaminophen exposure) in normal rats (Example 8); format: in vivo; details: rats, 30 mg/kg oral, positive control
Procedure: Therefore, this example was performed to investigate the inhibitory effect on gastric emptying when the novel long-acting GDF15 fusion protein was administered at the doses equal to the effective dose, higher than the maximum effective dose, or in combination with a GLP-1 receptor agonist to rats. 6-week-old male SD rats (Orient Bio, Republic of Korea) were purchased from Hallym Lab. Animal Inc., Republic of Korea. Animals were acclimated for 7 days. On the day of drug administration, the rats were grouped based on the average body weight of individual rats (n=5 per group) and fasted for at least 6 hours before oral administration of acetaminophen. Then, 0.1, 1, and 10 nmol/kg of FM9-6+Fc_hole, 10 nmol/kg of semaglutide (long-acting GLP-1 derivative, SEQ ID NO: 114), and combination of FM9-6+Fc_hole and semaglutide (1+10 nmol/kg) were subcutaneously administered. The semaglutide was Ozempic® (semaglutide) from Novo NorDisk. As a negative control drug, D-PBS (normal vehicle) was subcutaneously administered, and as a positive control drug, 30 mg/kg of loperamide was orally administered 45 minutes before acetaminophen administration. On 3, 24 and 72 hours after a single dose of the test articles, acetaminophen was orally administered at 100 mg/kg to rats, and blood samples were collected before and at 30, 60, 90, 120 and 150 minutes after acetaminophen administration. The plasma concentration of acetaminophen was analyzed, and the pharmacokinetic profiles and the systemic exposures of acetaminophen were compared to evaluate the inhibitory effect on gastric emptying among the groups.

[2] = target: T1, GFRAL/RET/SRE-luc-overexpressing HEK293 cell line (Homo sapiens, UniProt Q6UXV0); test: Functional activity of long-acting GDF15 fusion protein (Bright-Glo luciferase assay); format: cell-based; details: for EC50: luciferase RLU, 4 hours reaction; for Emax (%): relative to FM9-6+Fc_hole (Emax 100%); for EC50 values (in words) / Emax values (in words): compared with the other linkers
T1 construct: expressed in transfected cells; host or cells: HEK293 (human embryonic kidney 293), overexpressing GFRAL, RET and an SRE-luciferase reporter
T1 sequence (Q6UXV0 19-394, species assumed): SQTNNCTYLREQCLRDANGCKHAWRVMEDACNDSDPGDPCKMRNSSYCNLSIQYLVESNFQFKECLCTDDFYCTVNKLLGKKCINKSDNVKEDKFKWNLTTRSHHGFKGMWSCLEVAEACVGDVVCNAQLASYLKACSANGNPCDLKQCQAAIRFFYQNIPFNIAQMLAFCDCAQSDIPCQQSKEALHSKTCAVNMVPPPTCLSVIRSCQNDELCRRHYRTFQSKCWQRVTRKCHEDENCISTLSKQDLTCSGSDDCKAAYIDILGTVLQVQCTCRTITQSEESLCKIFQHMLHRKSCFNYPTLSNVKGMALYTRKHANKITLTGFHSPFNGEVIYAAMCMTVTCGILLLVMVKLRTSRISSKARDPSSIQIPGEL
T1 sequence (P07949 29-1114 partner, species assumed): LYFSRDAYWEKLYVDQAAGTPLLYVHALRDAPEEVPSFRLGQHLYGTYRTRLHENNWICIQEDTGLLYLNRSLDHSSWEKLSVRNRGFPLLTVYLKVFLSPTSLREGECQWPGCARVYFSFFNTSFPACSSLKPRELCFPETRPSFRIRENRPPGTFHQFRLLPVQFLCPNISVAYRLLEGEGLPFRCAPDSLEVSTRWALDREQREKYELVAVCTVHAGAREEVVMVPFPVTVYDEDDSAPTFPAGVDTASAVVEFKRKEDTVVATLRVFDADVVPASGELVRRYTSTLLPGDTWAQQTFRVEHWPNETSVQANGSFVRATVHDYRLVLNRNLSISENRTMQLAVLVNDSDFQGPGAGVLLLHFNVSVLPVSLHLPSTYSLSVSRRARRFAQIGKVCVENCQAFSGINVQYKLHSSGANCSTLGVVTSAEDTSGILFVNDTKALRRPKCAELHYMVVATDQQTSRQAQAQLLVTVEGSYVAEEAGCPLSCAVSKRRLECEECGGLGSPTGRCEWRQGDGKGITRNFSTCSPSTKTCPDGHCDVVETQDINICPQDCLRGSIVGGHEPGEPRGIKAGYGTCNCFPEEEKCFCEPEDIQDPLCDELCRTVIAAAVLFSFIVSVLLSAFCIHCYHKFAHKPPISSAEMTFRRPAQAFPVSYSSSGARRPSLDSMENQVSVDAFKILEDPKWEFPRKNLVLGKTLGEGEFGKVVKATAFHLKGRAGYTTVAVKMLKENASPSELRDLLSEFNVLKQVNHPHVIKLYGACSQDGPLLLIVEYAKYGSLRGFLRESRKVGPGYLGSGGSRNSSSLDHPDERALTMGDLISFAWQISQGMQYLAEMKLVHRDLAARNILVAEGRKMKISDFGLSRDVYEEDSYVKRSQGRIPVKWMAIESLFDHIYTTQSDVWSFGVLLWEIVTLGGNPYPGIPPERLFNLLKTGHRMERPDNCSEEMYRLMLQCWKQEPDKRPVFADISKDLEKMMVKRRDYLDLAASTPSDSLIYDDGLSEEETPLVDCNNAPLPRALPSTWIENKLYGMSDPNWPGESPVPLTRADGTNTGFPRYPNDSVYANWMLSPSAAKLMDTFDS
Procedure: Two variants (FM9+Fc_hole, FM11+Fc_hole) were compared and evaluated for GDF15 activity depending on the linker type and length. The GDF15 activity was measured using a Bright-Glo™ luciferase assay kit (Promega) and a GFRAL/RET/SRE-luc-overexpressing HEK293 cell line (Human embryonic kidney 293).
Specifically, 1×10^5 GFRAL/RET/SRE-luc-overexpressing HEK293 cells were dispended in DMEM containing 10% FBS in each well of a 96-well-plate, followed by culture at 37° C. and 5% CO2 for 24 hours. After 24 hours, each medium of the 96-well plate was replaced with 50 μl of a serum-free medium, followed by culture at 37° C. and 5% CO2 for 4 hours.
In addition, the long-acting GDF15 fusion protein produced in Example 1 was prepared by 3-fold serial dilution from a concentration of 2000 nM using a serum-free medium. Thereafter, 50 μl of the long-acting GDF15 fusion protein dilution was added to each well containing 50 μl of the replaced serum-free medium and the GERAL/RET/SRE-luc cell line so that the actual concentration thereof was serially diluted 3-fold from 1000 nM, followed by reaction at 37° C. and 5% CO2 for 4 hours. After 4 hours, each well was treated with 100 μl of a Bright-Glo™ solution prepared by adding a Bright-Glo™ buffer to a Bright-Glo™ substrate, followed by reaction at room temperature for 1 minute.
Thereafter, the reaction value (relative light units, RLU) was measured using a microplate reader (Perkin Elmer, Wallac Victor X5) capable of measuring luminescence. The results thereof are shown in Table 2 below and in FIGS. 1 and 2. Here, the functional activity of the long-acting GDF15 fusion protein depending on the GDF15 sequence, linker type, and length was compared based on the in-vitro GDF15 activity of FM9-6+Fc_hole (Emax 100%).

[3] = Pharmacokinetics of long-acting GDF15 fusion protein (dimer) in C57BL/6N mice; format: in vivo; details: 1 mg/kg subcutaneous; for Cmax: active GDF15 in serum by ELISA
Procedure: 6-week-old male C57BL/6N mice (Orient Bio, Republic of Korea) were purchased from Hallym Lab. Animal Inc., Republic of Korea. Animals were acclimated for 7 days, and on the day of drug administration, the mice were grouped based on the average body weight of individual mice (n=3 per blood sampling time per group). Then, FM9-4+Fc_hole, FM9-6+Fc_hole, FM11-4+Fc_hole, and FM11-6+Fc_hole were subcutaneously administered at 1 mg/kg to each group, and blood samples were collected at 4, 24, 48, 72, 96, 120, 168, and 240 hours after administration. Determination of active GDF15 in serum was achieved by enzyme-linked immunosorbent assay (ELISA), and pharmacokinetic parameters of each long-acting GDF15 fusion protein (dimer) are shown in Table 3 below.

Compound	EC50 [2] [nM]	Emax (%) [2] [%]	AUClast [3] [µg·h/mL]	CL/F [3] [mL/h/kg]	T1/2,app [3] [h]	Tmax [3] [h]	Cmax [3] [ng/mL]	further results
CN(C)C(=O)C(CCN1CCC(O)(c2ccc(Cl)cc2)CC1)(c1ccccc1)c1ccccc1 [Loperamide, loperamide, reference compound]	–	–	–	–	–	–	–	AUClast of acetaminophen (μg · min/mL), 3 hr ([1]; 3 hr): 1565.13 µg·min/mL; AUClast of acetaminophen (μg · min/mL), 24 hr ([1]; 24 hr): 761.04** μg · min/mL; AUClast of acetaminophen (μg · min/mL), 72 hr ([1]; 72 hr): 996.36*** μg · min/mL
FM9-2 + Fc_hole: long-acting GDF15 fusion protein (dimer): GDF15 ΔN2, S64R, IgG1 Fc_knob/Fc_hole, linker GS(G4S)5; SEQ ID NOs: 99 and 47	9.5	110.8	–	–	–	–	–	–
FM9-3 + Fc_hole: long-acting GDF15 fusion protein (dimer): GDF15 ΔN2, S64R, IgG1 Fc_knob/Fc_hole, linker GS(G4S)7; SEQ ID NOs: 100 and 47	9.3	95.6	–	–	–	–	–	–
FM9-4 + Fc_hole: long-acting GDF15 fusion protein (dimer): GDF15 ΔN2, S64R, IgG1 Fc_knob/Fc_hole, linker GS(EEEA)6; SEQ ID NOs: 101 and 47	–	–	750.49702	1.30	36.84	24	8421.37	EC50 values (in words) [2]: relatively low EC50 values; Emax values (in words) [2]: high Emax values
FM11-2 + Fc_hole: long-acting GDF15 fusion protein (dimer): GDF15 ΔN3, G4N, D5S, H6T, S64R, IgG1 Fc_knob/Fc_hole, linker GS(G4S)5; SEQ ID NOs: 105 and 47	7.7	79.4	–	–	–	–	–	–
FM11-3 + Fc_hole: long-acting GDF15 fusion protein (dimer): GDF15 ΔN3, G4N, D5S, H6T, S64R, IgG1 Fc_knob/Fc_hole, linker GS(G4S)7; SEQ ID NOs: 106 and 47	7.8	81.0	–	–	–	–	–	–
FM11-4 + Fc_hole: long-acting GDF15 fusion protein (dimer): GDF15 ΔN3, G4N, D5S, H6T, S64R, IgG1 Fc_knob/Fc_hole, linker GS(EEEA)6; SEQ ID NOs: 107 and 47	–	–	690.21308	1.41	40.61	24	7200.02	EC50 values (in words) [2]: relatively low EC50 values; Emax values (in words) [2]: high Emax values
FM11-6 + Fc_hole: long-acting GDF15 fusion protein (dimer): GDF15 ΔN3, G4N, D5S, H6T, S64R, IgG1 Fc_knob/Fc_hole, linker GS(EAAAK)5; SEQ ID NOs: 109 and 47	–	–	116.43394	8.43	25.84	24	1547.77	–
